Data from paper PMC5839545, “CENP-C/H/I/K/M/T/W/N/L and hMis12 but not CENP-S/X participate in complex formation in the nucleoplasm of living human interphase cells outside centromeres” (PLoS ONE, 2018).
One block for each binder: values may come before it.

Experiments:
Conditions in all cases: partners not purified
Nnf1-(s)-mCherry = molecular target: T1, Nnf1-(s)-mCherry (human, UniProt Q6P1K2 1-205); assay: dual color fluorescence cross-correlation spectroscopy (DC-FCCS); EGFP and mCherry fusion proteins co-expressed in living interphase HEp-2 or U2OS cells; spots in the nucleoplasm free of kinetochores, focal volume bleached before; 37°C; 488 and 561 nm; corrected values are the measured ones times about two
T1 construct: Nnf1 of the hMis12 complex, human; source: HEp-2 or U2OS cells, transfected by electroporation, in living cells; not shown: mCherry (short linker)
T1 sequence (looked up): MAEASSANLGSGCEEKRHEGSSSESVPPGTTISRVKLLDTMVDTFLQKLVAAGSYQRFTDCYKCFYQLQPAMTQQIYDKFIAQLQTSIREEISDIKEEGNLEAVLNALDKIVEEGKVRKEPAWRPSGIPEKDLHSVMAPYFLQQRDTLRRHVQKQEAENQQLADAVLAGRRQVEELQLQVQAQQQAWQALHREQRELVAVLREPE

mCherry-(s)-CENP-T = molecular target: T2, mCherry-(s)-CENP-T (human, UniProt Q96BT3 1-561); assay: as above
T2 construct: CENP-T, human; called wildtype against CENP-T^∆N; source: HEp-2 or U2OS cells (DC-FCCS) and HEK293 cells (SW-FCCS), transfected by electroporation, in living cells

CENP-T-(s)-mCherry = molecular target: T3, CENP-T-(s)-mCherry (human, UniProt Q96BT3 1-561); assay: as above
T3 construct: CENP-T, human; called full-length CENP-T against its N-terminal domain; source: HEp-2 or U2OS cells, transfected by electroporation, in living cells; not shown: mCherry (short linker)

mCherry-(s)-CENP-K = molecular target: T4, mCherry-(s)-CENP-K (human, UniProt Q9BS16 1-269); assay: as above
T4 construct: CENP-K, human; also called mCherry-CENP-K; source: HEp-2 or U2OS cells, transfected by electroporation, in living cells
T4 sequence (Q9BS16 whole entry): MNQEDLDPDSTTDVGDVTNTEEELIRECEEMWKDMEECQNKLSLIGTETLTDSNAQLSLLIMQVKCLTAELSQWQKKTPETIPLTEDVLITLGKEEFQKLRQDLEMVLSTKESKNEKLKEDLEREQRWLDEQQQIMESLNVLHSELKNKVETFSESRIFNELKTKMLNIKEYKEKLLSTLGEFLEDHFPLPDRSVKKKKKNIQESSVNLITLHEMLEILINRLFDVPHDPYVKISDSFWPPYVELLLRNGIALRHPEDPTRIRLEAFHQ

mCherry-(s)-CENP-W = molecular target: T5, mCherry-(s)-CENP-W (human, UniProt Q5EE01 1-88); assay: single-wavelength fluorescence cross-correlation spectroscopy (SW-FCCS); EGFP and mCherry fusion proteins co-expressed in living interphase HEK293 cells; nucleoplasm; 37°C; 514 nm; effective (apparent) Kd from scatter plot (S) or histogram (H), corrected for non-fluorescent mCherry and observation volumes
T5 construct: CENP-W, human; source: HEp-2 or U2OS cells (DC-FCCS) and HEK293 cells (SW-FCCS), transfected by electroporation, in living cells
T5 sequence (Q5EE01 whole entry, the tested form may be a part): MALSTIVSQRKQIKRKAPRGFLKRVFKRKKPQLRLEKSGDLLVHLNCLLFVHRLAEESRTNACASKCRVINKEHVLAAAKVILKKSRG

mCherry-(s)-Nsl1 = molecular target: T6, mCherry-(s)-Nsl1 (human, UniProt Q96IY1 1-281); assay: dual color fluorescence cross-correlation spectroscopy (DC-FCCS); EGFP and mCherry fusion proteins co-expressed in living interphase HEp-2 or U2OS cells; spots in the nucleoplasm free of kinetochores, focal volume bleached before; 37°C; 488 and 561 nm; corrected values are the measured ones times about two
T6 construct: Nsl1 of the hMis12 complex, human; source: HEp-2 or U2OS cells, transfected by electroporation, in living cells
T6 sequence (looked up): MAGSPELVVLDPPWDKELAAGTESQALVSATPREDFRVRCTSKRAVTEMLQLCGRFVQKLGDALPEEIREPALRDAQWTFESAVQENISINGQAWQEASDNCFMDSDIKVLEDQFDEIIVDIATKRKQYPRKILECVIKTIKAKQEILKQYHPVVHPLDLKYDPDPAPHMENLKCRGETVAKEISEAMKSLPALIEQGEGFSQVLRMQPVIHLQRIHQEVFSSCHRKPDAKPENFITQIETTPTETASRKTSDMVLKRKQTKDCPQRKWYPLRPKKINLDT

mCherry-(s)-Nnf1 = molecular target: T7, mCherry-(s)-Nnf1 (human, UniProt Q6P1K2 1-205); assay: as above
T7 construct: Nnf1 of the hMis12 complex, human; source: HEp-2 or U2OS cells, transfected by electroporation, in living cells
T7 sequence (looked up): T1 sequence (looked up)

hMis12-(s)-mCherry = molecular target: T8, hMis12-(s)-mCherry (human, UniProt Q9H081 1-205); assay: as above
T8 construct: hMis12, human; source: HEp-2 or U2OS cells, transfected by electroporation, in living cells; not shown: mCherry (short linker)
T8 sequence (looked up): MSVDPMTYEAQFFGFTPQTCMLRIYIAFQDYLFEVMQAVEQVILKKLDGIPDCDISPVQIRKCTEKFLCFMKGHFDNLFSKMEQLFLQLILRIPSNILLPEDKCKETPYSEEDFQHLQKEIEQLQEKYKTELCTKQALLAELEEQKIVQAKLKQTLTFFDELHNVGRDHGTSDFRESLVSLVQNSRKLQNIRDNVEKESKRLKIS

B1: hMis12-(s)-EGFP (natural protein, human, UniProt Q9H081 1-205, looked up)
chain: T8 sequence (looked up)
notes: hMis12, human; source: HEp-2 or U2OS cells, transfected by electroporation, in living cells; not shown: EGFP (short linker)
cross-correlation, measured (%) (Nnf1-(s)-mCherry): 31%
cross-correlation, measured (%) (mCherry-(s)-CENP-T): 18%
cross-correlation, measured (%) (CENP-T-(s)-mCherry): 19%
cross-correlation, measured (%) (mCherry-(s)-CENP-K): 18%

B3: EGFP-(s)-Dsn1 (natural protein, human, UniProt Q9H410 1-356, looked up)
chain: MTSVTRSEIIDEKGPVMSKTHDHQLESSLSPVEVFAKTSASLEMNQGVSEERIHLGSSPKKGGNCDLSHQERLQSKSLHLSPQEQSASYQDRRQSWRRASMKETNRRKSLHPIHQGITELSRSISVDLAESKRLGCLLLSSFQFSIQKLEPFLRDTKGFSLESFRAKASSLSEELKHFADGLETDGTLQKCFEDSNGKASDFSLEASVAEMKEYITKFSLERQTWDQLLLHYQQEAKEILSRGSTEAKITEVKVEPMTYLGSSQNEVLNTKPDYQKILQNQSKVFDCMELVMDELQGSVKQLQAFMDESTQCFQKVSVQLGKRSMQQLDPSPARKLLKLQLQNPPAIHGSGSGSCQ
notes: Dsn1 of the hMis12 complex, human; source: HEp-2 or U2OS cells, transfected by electroporation, in living cells
cross-correlation, measured (%) (mCherry-(s)-Nsl1): 24%
cross-correlation, measured (%) (mCherry-(s)-Nnf1): 22%
cross-correlation, measured (%) (hMis12-(s)-mCherry): 32%

B4: EGFP-(s)-Nsl1 (natural protein, human, UniProt Q96IY1 1-281, looked up)
chain: T6 sequence (looked up)
notes: Nsl1 of the hMis12 complex, human; source: HEp-2 or U2OS cells, transfected by electroporation, in living cells
cross-correlation, measured (%) (mCherry-(s)-Nnf1): 18%

Further lines, results first:

dimer, corrected (%) (mCherry-(s)-CENP-W): 24%
dimer, uncorrected (%) (mCherry-(s)-CENP-W): 18.2%
B2: EGFP-(s)-CENP-T^∆N (domain or fragment, human, UniProt Q96BT3 396-561, looked up)
chain: ASPESASSTPESLQARRHHQFLEPAPAPGAAVLSSEPAEPLLVRHPPRPRTTGPRPRQDPHKAGLSHYVKLFSFYAKMPMERKALEMVEKCLDKYFQHLCDDLEVFAAHAGRKTVKPEDLELLMRRQGLVTDQVSLHVLVERHLPLEYRQLLIPCAYSGNSVFPAQ
notes: CENP-T, human, C-terminal domain, aas 396-561, said to contain the histone-fold domain (aas 376-561); also called EGFP-(s)-CENP-T^396-561; source: HEK293 cells, transfected by electroporation, in living cells

cross-correlation, measured (%) (hMis12-(s)-mCherry): 36%
B5: Nsl1-(s)-EGFP (natural protein, human, UniProt Q96IY1 1-281, looked up)
chain: T6 sequence (looked up)
notes: Nsl1 of the hMis12 complex, human; source: HEp-2 or U2OS cells, transfected by electroporation, in living cells; not shown: EGFP (short linker)
